In this assay the target is T1, human Colony Stimulating Factor-1 (hCSF-1), residues 1-149 (human).
T1 sequence (P09603 whole entry, looked up): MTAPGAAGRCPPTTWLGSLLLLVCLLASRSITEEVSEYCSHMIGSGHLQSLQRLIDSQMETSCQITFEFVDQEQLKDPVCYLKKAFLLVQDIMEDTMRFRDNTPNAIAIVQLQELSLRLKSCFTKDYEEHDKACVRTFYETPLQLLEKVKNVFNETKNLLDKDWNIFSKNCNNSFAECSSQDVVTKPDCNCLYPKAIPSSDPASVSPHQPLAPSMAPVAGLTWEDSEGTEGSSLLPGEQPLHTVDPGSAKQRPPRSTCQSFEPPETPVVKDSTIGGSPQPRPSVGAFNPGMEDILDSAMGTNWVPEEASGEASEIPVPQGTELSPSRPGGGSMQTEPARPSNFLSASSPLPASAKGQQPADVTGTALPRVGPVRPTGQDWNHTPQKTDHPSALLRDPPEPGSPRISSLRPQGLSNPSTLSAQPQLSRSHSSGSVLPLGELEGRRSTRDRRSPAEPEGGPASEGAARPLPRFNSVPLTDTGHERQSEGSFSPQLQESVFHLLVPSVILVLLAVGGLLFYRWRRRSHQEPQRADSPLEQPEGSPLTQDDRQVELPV
In words: ITC. (ITC needs no label: the signal is the heat of the interaction.)

B1: human CSF-1 receptor, first three extracellular domains (hCSF-1R_(D1-D3)) (domain or fragment)
chain: IPVIEPSVPELVVKPGATVTLRCVGNGSVEWDGPPSPHWTLYSDGSSSILSTNNATFQNTGTYRCTEPGDPLGGSAAIHLYVKDPARPWNVLAQEVVVFEDQDALLPCLLTDPVLEAGVSLVRVRGRPLMRHTNYSFSPWHGFTIHRAKFIQSQDYQCSALMGGRKVMSISIRLKVQKVIPGPPALTLVPAELVRIRGEAAQIVCSASSVDVNFDVFLQHNNTKLAIPQQSDFHNNRYQKVLTLNLDQVDFQHAGNYSCVASNVQGKHSTSMFFRVVES
modifications: N-linked glycosylation (produced with kifunensine)
By Kd is commonly meant the equilibrium constant for the complex coming apart. For B1, the Kd stood at 213 nM.

For the origin of these results see PMC3260422 (Structure(London, England:1993), 2011).
